Sequences and labels used below:
T1: ferroportin endogenously expressed on T47D cells (HTB 133, ATCC) (human, UniProt Q9NP59 1-571)
T1 sequence (looked up): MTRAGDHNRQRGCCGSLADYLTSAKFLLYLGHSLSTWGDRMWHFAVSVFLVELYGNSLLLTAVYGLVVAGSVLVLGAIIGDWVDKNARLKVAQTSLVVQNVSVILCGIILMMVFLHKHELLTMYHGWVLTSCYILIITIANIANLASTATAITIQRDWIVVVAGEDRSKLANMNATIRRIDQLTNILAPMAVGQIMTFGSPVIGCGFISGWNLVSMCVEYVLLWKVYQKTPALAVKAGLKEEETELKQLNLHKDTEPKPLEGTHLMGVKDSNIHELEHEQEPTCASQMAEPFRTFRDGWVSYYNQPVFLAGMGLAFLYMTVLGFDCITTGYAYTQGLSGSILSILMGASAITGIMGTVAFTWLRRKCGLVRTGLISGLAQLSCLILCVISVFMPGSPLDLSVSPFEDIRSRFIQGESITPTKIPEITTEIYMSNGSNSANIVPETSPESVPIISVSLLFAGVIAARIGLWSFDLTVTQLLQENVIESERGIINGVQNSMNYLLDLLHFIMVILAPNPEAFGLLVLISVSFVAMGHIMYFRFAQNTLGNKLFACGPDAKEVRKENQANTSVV

T2: human ferroportin (SLC40A1) fused in frame with GFP, stably expressed in HEK293 cells (human, UniProt Q9NP59 1-571)
T2 sequence (looked up): T1 sequence (looked up)

T3: ferroportin (Homo sapiens, UniProt Q9NP59)
T3 sequence (Q9NP59 1-571): T1 sequence (looked up)

From US20240066131A1 (Protagonist Therapeutics, Inc., priority 2020, published 2024) come the findings set out here.

Positions of bridges follow the written chain, without caps; N, C: chain ends. Non-standard residues stand in square brackets, D forms with d. Residues, ends and D or L forms follow the SMILES beside them. Groups on a side chain read outwards from the residue. *: point of attachment. C18 diacid = O=C(O)CCCCCCCCCCCCCCCCC(=O)*; PeptoidIsovaleric Acid = not defined here; Dip = N[C@H](C(=O)O)C(c1ccccc1)c1ccccc1; Palmitoyl = CCCCCCCCCCCCCCCC(=O)*; β3hF = N[C@H](CC(=O)O)Cc1ccccc1; Isovaleryl = CC(C)CC(=O)*; AEEA = NCCOCCOCC(=O)O; Ahx = NCCCCCC(=O)O

Usually IC50 stands for the point on the concentration scale where inhibition reaches its midpoint.

For the first assay, the target named is ferroportin endogenously expressed on T47D cells (HTB 133, ATCC) (human) (UniProt Q9NP59). In words: cell-based or functional assay.
Conditions: not given
In the case of “Isovaleric Acid-K-T-H-[Dpa]-P-E-[Lys(Ahx_Palm)]-NH2 (peptide)”, the T47D MSA IC50 turned out to be 101 nM.
On the same count and under the same terms, to “Isovaleric Acid-Dap-T-H-[Dpa]-P-A-I-E-[bhPhe]-[Lys(Ahx_Palm)]-R-NH2 (peptide)” belongs 36.4 nM; to “Isovaleric Acid-K-T-H-[Dpa]-P-E-[bhPhe]-[Lys(Ahx_Palm)]-NH2 (peptide)”, 15.6 nM.

In another assay the target is T1, ferroportin endogenously expressed on …. In words: cell-based or functional assay.
Conditions: not given
Take Isovaleryl-ETH[Dip]PK(Gal)IK([Ahx-Palmitoyl])[β3hF]-NH2 [Isovaleric Acid-E-T-H-[Dpa]-P-[Lys(Gal-I-[Lys(Ahx_Palm)]-[bhPhe]-NH2]: the “T47D IC50” value turned out to be 35.5 nM.

For the next assay, the target named is T2, human ferroportin (SLC40A1) fused in …. In words: cell-based or functional assay.
Conditions: not given
In the case of Isovaleryl-ETH[Dip]PK(Gal)IK([Ahx-Palmitoyl])[β3hF]-NH2 [Isovaleric Acid-E-T-H-[Dpa]-P-[Lys(Gal-I-[Lys(Ahx_Palm)]-[bhPhe]-NH2], the “FPN IC50” value amounted to 14.3 nM.
In the case of Isovaleryl-ETH[Dip]P[dK](Gal)IK([Ahx-Palmitoyl])[β3hF]-NH2 [Isovaleric Acid-E-T-H-[Dpa]-P-d[Lys(Gal)]-I-[Lys(Ahx_Palm)]-[bhPhe]-NH2], the “FPN IC50” value stood at 246 nM.
As to {PeptoidIsovaleric Acid}-ETH[Dip]PAIK([Ahx-Palmitoyl])[β3hF]-NH2 (reading uncertain) [PeptoidIsovaleric Acid-E-T-H-[Dpa]-P-A-I-[Lys(Ahx_Palm)]-[bhPhe]-NH2], the “FPN IC50” value worked out at 1120 nM.
Turning to Isovaleryl-ETH[Dip][dK](Gal)AIK([Ahx-Palmitoyl])[β3hF]-NH2 [Isovaleric Acid-E-T-H-[Dpa]-d[Lys(Gal)]-A-I-[Lys(Ahx_Palm)]-[bhPhe]-NH2], the “FPN IC50” value was determined as 654 nM.
As for Isovaleryl-[dK](Gal)TH[Dip]PAIK([Ahx-Palmitoyl])[β3hF]-NH2 [Isovaleric Acid-d[Lys(Gal-T-H-[Dpa]-P-A-I-[Lys(Ahx_Palm)]-[bhPhe]-NH2], the “FPN IC50” value is greater than 3000 nM.

Another assay addresses T3, ferroportin. Nature of the assay: FPN activity assay: internalization/degradation of ferroportin-GFP in stably transfected HEK293 cells (loss of GFP fluorescence). Format: cell-based. Particulars: Table 6A; read-out: FPN EC50. The method, then:
Following internalization, the ferroporin protein is degraded.
A retro inverse peptide is a peptide with a reversed sequence in all D amino acids. An example is that Hy-Glu-Thr-His-NH2 becomes Hy-DHis-DThr-DGlu-NH2. The EC50 of these reference compounds for ferroportin internalization/degradation was determined according to the FPN activity assay described above. These peptides served as control standards.
As for `CC[C@H](C)[C@H](NC(=O)[C@H](C)NC(=O)[C@@H]1CCCN1C(=O)[C@@H](NC(=O)[C@H](Cc1c[nH]cn1)NC(=O)[C@@H](NC(=O)[C@H](CCC(=O)O)NC(=O)CC(C)C)[C@@H](C)O)C(c1ccccc1)c1ccccc1)C(=O)N[C@@H](CCCCNC(=O)COCCOCCNC(=O)COCCOCCNC(=O)CCCCCNC(=O)CCCCCCCCCCCCCCCCC(=O)O)C(=O)N[C@H](CC(N)=O)Cc1ccccc1` [compound 76] (Isovaleryl-ETH[Dip]PAIK([AEEA-AEEA-Ahx-C18 diacid])[β3hF]-NH2), the DC50 came to 150 nM.

A further assay deals with T3, ferroportin. In words: T47D cell-based ferroportin internalization assay in presence of mouse serum albumin (MSA), AF647 detection peptide, flow cytometry. Further details: a human breast carcinoma adherent cell line which endogenously expresses ferroportin; host or cells: T47D. Particulars: second Table 6D, T47D/MSA data; with mouse serum albumin. As to the method:
The potency of the peptides in causing ferroportin internalization was evaluated in a T47D cell-based assay. […] In this internalization assay, the potency of the test peptides was evaluated in presence of serum albumin which is the main protein component in the blood. T47D cells were maintained in RPMI media (containing required amount of fetal bovine serum) and regularly sub-cultured. […] The test peptide dilution series were allowed to incubate at room temperature for 30 min. Then the media was aspirated from the 96-well cell plate and test peptide dilution series were added. After 1 hr incubation, the media with test peptides was aspirated out and A1F647-conjugated detection peptide was added at fixed concentration of 200 nM. […] The cells were washed again after a 2 hr incubation in preparation for flow cytometry analysis. The Median Fluorescence Intensity (MFI) of the AF647-positive population was measured (after removing dead cells and non-singlets from the analysis). The MFI values were used to generate a dose-response curve and obtain IC50 potencies for the test peptides. The IC50 potencies were calculated by using 4-parameter non-linear fitting function in Graphpad Prism (Table 6D).
On the technique in general: In flow cytometry, cells or beads pass a laser one at a time.
Take `CCCCCCCCCCCCCCCC(=O)NCCCCCC(=O)NCCCC[C@H](NC(=O)[C@@H]1CCC(=O)NCCCC[C@H](NC(=O)CC(C)C)C(=O)N[C@@H]([C@@H](C)O)C(=O)N[C@@H](Cc2c[nH]cn2)C(=O)N[C@@H](C(c2ccccc2)c2ccccc2)C(=O)N2CCC[C@H]2C(=O)N[C@@H](C)C(=O)N[C@@H]([C@@H](C)CC)C(=O)N1)C(N)=O` [compound 309] (Isovaleryl-KTH[Dip]PAIEK([Ahx-Palmitoyl])-NH2; lactam 1-8): the IC50 amounted to 31.2 nM.
On the same count and under the same terms, with `CC[C@H](C)[C@H](NC(=O)[C@H](C)NC(=O)[C@@H]1CCCN1C(=O)[C@@H](NC(=O)[C@H](Cc1c[nH]cn1)NC(=O)[C@@H](NC(=O)[C@H](CCC(=O)O)NC(=O)CC(C)C)[C@@H](C)O)C(c1ccccc1)c1ccccc1)C(=O)N[C@@H](CCCCNC(=O)COCCOCCNC(=O)COCCOCCNC(=O)CCCCCNC(=O)CCCCCCCCCCCCCCCCC(=O)O)C(=O)N[C@H](CC(N)=O)Cc1ccccc1` [compound 76] (Isovaleryl-ETH[Dip]PAIK([AEEA-AEEA-Ahx-C18 diacid])[β3hF]-NH2) the figure was 143 nM.
`CCCCCCCCCCCCCCCC(=O)NCCCCCC(=O)NCCCC[C@H](NC(=O)C[C@H](Cc1ccccc1)NC(=O)[C@H]1CCCCNC(=O)CC[C@H](NC(=O)CC(C)C)C(=O)N[C@@H]([C@@H](C)O)C(=O)N[C@@H](Cc2c[nH]cn2)C(=O)N[C@@H](C(c2ccccc2)c2ccccc2)C(=O)N2CCC[C@H]2C(=O)N[C@@H](C)C(=O)N[C@@H]([C@@H](C)CC)C(=O)N1)C(=O)N[C@@H](CCCNC(=N)N)C(N)=O` [compound 56] (Isovaleryl-ETH[Dip]PAI[dK][β3hF]K([Ahx-Palmitoyl])R-NH2; lactam 1-8): the IC50 was found to be 8.9 nM.
